Data on 13 molecules can be found in patent publication US20190100563A1 (UNIVERSITY COURT OF THE UNIVERSITY OF EDINBURGH, published 2019).

Substitutions are numbered along the chain they refer to. Names and notes keep the numbering of the source. Bounds are passed on as bounds.

Assay [1] addresses Human C3b (plasma-purified) (human) (UniProt P01024). Nature of the assay: SPR (Biacore), coupled C3b.
The target in assay [2] is Human C3d (plasma-purified) (human) (UniProt P01024). Nature of the assay: SPR (Biacore), coupled C3d.
Chain of Human C3d (plasma-purified) (human) (P01024 1002-1303 limits assumed): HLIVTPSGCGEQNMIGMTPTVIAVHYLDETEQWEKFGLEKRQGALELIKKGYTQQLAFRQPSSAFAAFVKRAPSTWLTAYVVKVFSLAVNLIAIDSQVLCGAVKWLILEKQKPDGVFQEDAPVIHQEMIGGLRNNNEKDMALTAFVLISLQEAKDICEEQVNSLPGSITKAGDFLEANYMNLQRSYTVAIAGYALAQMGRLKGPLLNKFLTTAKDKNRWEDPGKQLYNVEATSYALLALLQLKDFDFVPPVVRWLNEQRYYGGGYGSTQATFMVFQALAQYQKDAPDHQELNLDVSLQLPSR
Assay [3] concerns the target Human complement factor H purified from plasma (human) (UniProt P08603). Nature of the assay: SPR.
Assay [4] has the same target. Briefly: SPR, TIGR4 fragment on NTA chip, CFH as analyte.
For assay [5] the target is unchanged. Nature of the assay: SPR, immobilised TIGR4 fragment, FH as analyte.
For assay [6], the target named is T1, Human complement factor H purified from plasma (human, UniProt P08603 19-1231).
T1 construct: also called Plasma CFH; plasma-purified CFH
Briefly: SPR, immobilised PspC fragment, CFH flowed over.

The target of assay [7] is T1, Human complement factor H purified from …. Briefly: SPR.
For assay [8] the target is unchanged. Nature of the assay: SPR, same assay as for PspCN (37-140). In general terms: In SPR one partner is held on a chip, and binding of the other changes the refractive index at the surface.
In assay [9] the target is Human C3b (plasma-purified) (human, UniProt P01024 23-667; P01024 749-1663). Briefly: SPR, amine-coupled C3b on C1 chip, equilibrium 1:1 fit.
Chain of Human C3b (plasma-purified) (P01024 23-667 limits assumed, chain 1 of 2): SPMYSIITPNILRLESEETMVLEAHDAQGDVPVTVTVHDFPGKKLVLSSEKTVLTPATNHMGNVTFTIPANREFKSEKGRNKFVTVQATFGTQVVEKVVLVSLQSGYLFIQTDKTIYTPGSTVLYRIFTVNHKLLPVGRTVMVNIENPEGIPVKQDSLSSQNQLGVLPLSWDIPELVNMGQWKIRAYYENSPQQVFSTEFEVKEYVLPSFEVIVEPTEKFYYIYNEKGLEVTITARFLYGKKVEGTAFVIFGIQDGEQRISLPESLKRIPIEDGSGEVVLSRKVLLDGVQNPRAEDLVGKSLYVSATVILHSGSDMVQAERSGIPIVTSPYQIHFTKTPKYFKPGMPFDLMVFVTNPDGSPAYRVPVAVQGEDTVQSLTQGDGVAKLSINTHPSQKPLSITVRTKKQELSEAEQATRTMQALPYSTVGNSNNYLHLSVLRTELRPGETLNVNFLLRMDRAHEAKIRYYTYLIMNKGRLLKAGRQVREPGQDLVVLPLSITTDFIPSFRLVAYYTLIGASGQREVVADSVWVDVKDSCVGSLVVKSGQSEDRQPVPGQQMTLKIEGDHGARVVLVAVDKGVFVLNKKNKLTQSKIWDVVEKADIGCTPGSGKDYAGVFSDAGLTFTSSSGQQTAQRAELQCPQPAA
Chain of Human C3b (plasma-purified) (P01024 749-1663 limits assumed, chain 2 of 2): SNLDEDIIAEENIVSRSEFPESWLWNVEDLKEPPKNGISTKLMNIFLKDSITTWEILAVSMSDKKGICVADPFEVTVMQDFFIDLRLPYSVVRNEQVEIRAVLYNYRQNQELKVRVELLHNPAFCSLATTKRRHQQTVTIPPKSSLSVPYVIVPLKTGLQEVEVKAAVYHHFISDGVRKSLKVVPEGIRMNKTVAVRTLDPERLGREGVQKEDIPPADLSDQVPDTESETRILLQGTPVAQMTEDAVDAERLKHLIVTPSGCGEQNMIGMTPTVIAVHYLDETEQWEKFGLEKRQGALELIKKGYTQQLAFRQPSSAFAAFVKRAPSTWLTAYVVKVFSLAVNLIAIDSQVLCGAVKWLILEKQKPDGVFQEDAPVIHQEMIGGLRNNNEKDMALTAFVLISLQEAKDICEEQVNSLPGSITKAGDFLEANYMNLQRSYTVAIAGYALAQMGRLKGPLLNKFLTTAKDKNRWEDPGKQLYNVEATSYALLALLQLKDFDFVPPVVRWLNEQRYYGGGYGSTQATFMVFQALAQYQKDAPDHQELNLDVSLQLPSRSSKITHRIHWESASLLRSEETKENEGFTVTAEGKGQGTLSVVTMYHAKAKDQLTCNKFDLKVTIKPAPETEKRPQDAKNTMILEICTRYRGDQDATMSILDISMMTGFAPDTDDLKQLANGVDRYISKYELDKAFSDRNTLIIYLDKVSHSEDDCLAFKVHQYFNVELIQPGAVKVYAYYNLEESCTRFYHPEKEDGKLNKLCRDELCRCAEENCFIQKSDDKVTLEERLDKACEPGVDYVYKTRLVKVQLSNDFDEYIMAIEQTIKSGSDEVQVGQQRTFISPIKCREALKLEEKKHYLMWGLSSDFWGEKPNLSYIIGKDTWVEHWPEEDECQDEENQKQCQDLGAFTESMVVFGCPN
Protocol: The sensor chip was regenerated by 2×30 s injections of 1 M NaCl. Data were analysed using the Biacore evaluation software and equilibrium affinity parameters were calculated using a 1:1 binding affinity model.
Commercially sources plasma-purified human C3b, C3c and C3d were immobilized using standard amine coupling to different channels of the same C1 SPR chip (Biacore).
Assay [10] addresses T1, Human complement factor H purified from …. Nature of the assay: not stated there (SPR in the examples).

Chain of Human C3b (plasma-purified) (human) (P01024 23-667 limits assumed, chain 1 of 2): as the sequence (P01024 23-667 limits assumed, chain 1 of 2) above
Chain of Human C3b (plasma-purified) (human) (P01024 749-1663 limits assumed, chain 2 of 2): as the sequence (P01024 749-1663 limits assumed, chain 2 of 2) above

As to CFH:TIGR4 (37-179) complex, the Kd – broadly, the constant that tells how readily two partners part at equilibrium – stood at 280 nM in assay [1] and 1200 nM in assay [2].
As to “PspCN (TIGR4 68-148), fragment of PspC (CbpA) of S. pneumoniae strain TIGR4”, the Kd was 0.001 pM in [3], less than 0.018 nM in assay [4] and less than 0.018 nM in assay [5].

B1: PspC (52-140) (other)
chain: MAKTEHRKAAKQVVDEYIEKMLREIQLDRRKHTQNVALNIKLSAIKTKYLRELNVLEEKSKDELPSEIKAKLDAAFEKFKKDTLKPGEK
Turning to B1, in assay [6], the binding result was “binds”.

B2: sPspCNR1 (N-terminally hexaHis-SUMO-tagged PspC residues 37-292, strain D39, including the R1 domain) (other)
chain: ATENEGSTQAATSSNMAKTEHRKAAKQVVDEYIEKMLREIQLDRRKHTQNVALNIKLSAIKTKYLRELNVLEEKSKDELPSEIKAKLDAAFEKFKKDTLKPGEKVAEAKKKVEEAKKKAEDQKEEDRRNYPTNTYKTLELEIAEFDVKVKEAELELVKEEAKESRNEGTIKQAKEKVESKKAEATRLENIKTDRKKAEEEAKRKADGKLKEANVATSDQGKPKGRAKRGVPGELATPDKKENDAKSSDSSVGEETL
notes: not shown: N-terminal hexaHis-SUMO tag from the pE-SUMOpro Kan vector
With B2, the binding result in [7] is on record as “binds”.

B3: PspC (37-120) (other)
chain: ATENEGSTQAATSSNMAKTEHRKAAKQVVDEYIEKMLREIQLDRRKHTQNVALNIKLSAIKTKYLRELNVLEEKSKDELPSEIK
Turning to B3, the “decrease in binding affinity against PspCN (37-140)” value (shortened to “decrease in binding affinity”) in [8] is ≥ 3 orders of magnitude.

B4: PspC (37-110) (other)
chain: ATENEGSTQAATSSNMAKTEHRKAAKQVVDEYIEKMLREIQLDRRKHTQNVALNIKLSAIKTKYLRELNVLEEK
On to B4, for which the “decrease in binding affinity” value in [8] is ≥ 3 orders of magnitude.

B5: rCFH-D1119G:PspCN complex (other)
chain 1: EDCNELPPRRNTEILTGSWSDQTYPEGTQAIYKCRPGYRSLGNVIMVCRKGEWVALNPLRKCQKRPCGHPGDTPFGTFTLTGGNVFEYGVKAVYTCNEGYQLLGEINYRECDTDGWTNDIPICEVVKCLPVTAPENGKIVSSAMEPDREYHFGQAVRFVCNSGYKIEGDEEMHCSDDGFWSKEKPKCVEISCKSPDVINGSPISQKIIYKENERFQYKCNMGYEYSERGDAVCTESGWRPLPSCEEKSCDNPYIPNGDYSPLRIKHRTGDEITYQCRNGFYPATRGNTAKCTSTGWIPAPRCTLKPCDYPDIKHGGLYHENMRRPYFPVAVGKYYSYYCDEHFETPSGSYWDHIHCTQDGWSPAVPCLRKCYFPYLENGYNQNYGRKFVQGKSIDVACHPGYALPKAQTTVTCMENGWSPTPRCIRVKTCSKSSIDIENGFISESQYTYALKEKAKYQCKLGYVTADGETSGSITCGKDGWSAQPTCIKSCDIPVFMNARTKNDFTWFKLNDTLDYECHDGYESNTGSTTGSIVCGYNGWSDLPICYERECELPKIDVHLVPDRKKDQYKVGEVLKFSCKPGFTIVGPNSVQCYHFGLSPDLPICKEQVQSCGPPPELLNGNVKEKTKEEYGHSEVVEYYCNPRFLMKGPNKIQCVDGEWTTLPVCIVEESTCGDIPELEHGWAQLSSPPYYYGDSVEFNCSESFTMIGHRSITCIHGVWTQLPQCVAIDKLKKCKSSNLIILEEHLKNKKEFDHNSNIRYRCRGKEGWIHTVCINGRWDPEVNCSMAQIQLCPPPPQIPNSHNMTTTLNYRDGEKVSVLCQENYLIQEGEEITCKDGRWQSIPLCVEKIPCSQPPQIEHGTINSSRSSQESYAHGTKLSYTCEGGFRISEENETTCYMGKWSSPPQCEGLPCKSPPEISHGVVAHMSDSYQYGEEVTYKCFEGFGIDGPAIAKCLGEKWSHPPSCIKTDCLSLPSFENAIPMGEKKDVYKAGEQVTYTCATYYKMDGASNVTCINSRWTGRPTCRDTSCVNPPTVQNAYIVSRQMSKYPSGERVRYQCRSPYEMFGDEEVMCLNGNWTEPPQCKDSTGKCGPPPPIDNGGITSFPLSVYAPASSVEYQCQNLYQLEGNKRITCRNGQWSEPPKCLHPCVISREIMENYNIALRWTAKQKLYSRTGESVEFVCKRGYRLSSRSHTLRTTCWDGKLEYPTCAKR
chain 2: ATENEGSTQAATSSNMAKTEHRKAAKQVVDEYIEKMLREIQLDRRKHTQNVALNIKLSAIKTKYLRELNVLEEKSKDELPSEIKAKLDAAFEKFKKDTLKPGEK
notes: also called PspCN:CFH (D1119G)
As for B5, the affinity in assay [9], expressed as Kd, was 320 nM.

B6: Recombinant human CFH, wild-type sequence, from Pichia pastoris (other)
chain: B5 chain 1 with G1101D
notes: also called rCFH; CFH (wt)
Consider B6, for which the Kd in assay [9] was 580 nM.

B7: rCFH:PspCN complex (other)
chain 1: B5 chain 1 with G1101D
chain 2: B5 chain 2
notes: also called CFH (wt):PspCN
Consider B7, for which, in assay [9], binding was characterised by a dissociation constant (Kd) of 160 nM.

B8: Recombinant human CFH (D1119G) from Pichia pastoris (other)
chain: B5 chain 1
notes: also called rCFH-D1119G; rCFH (D1119G)
B8 gave a Kd in assay [9] of 540 nM. This Kd is about 3.4-fold higher than that of the molecule before.

B9: SUMO (fusion partner alone) (other, UniProt Q12306 3-98, looked up)
chain: DSEVNQEAKPEVKPEVKPETHINLKVSDGSSEIFFKIKKTTPLRRLMEAFAKRQGKEMDSLRFLYDGIRIQADQTPEDLDMEDNDIIEAHREQIGG
Consider B9, for which the binding result in assay [7] is “no binding”.

B10: PspC (62-140) (other)
chain: KQVVDEYIEKMLREIQLDRRKHTQNVALNIKLSAIKTKYLRELNVLEEKSKDELPSEIKAKLDAAFEKFKKDTLKPGEK
B10 yielded a dissociation constant Kd in assay [10] of approximately 0.05 pM.

B11: PspC (37-130) (other)
chain: ATENEGSTQAATSSNMAKTEHRKAAKQVVDEYIEKMLREIQLDRRKHTQNVALNIKLSAIKTKYLRELNVLEEKSKDELPSEIKAKLDAAFEKF
With B11, the “decrease in binding affinity” value in [8] was ≥ 3 orders of magnitude.
